Like-named read-outs stand apart in the source and are kept apart here. Non-standard residues stand in square brackets, D forms with d. Residues, ends and D or L forms follow the SMILES beside them. No end group written: not given here. pS = N[C@@H](COP(=O)(O)O)C(=O)O

The subject of assay [1] is 14-3-3 proteins (all seven isoforms). The assay can be described thus: Fluorescence polarization titration, statements across the 14-3-3 isoforms. The class given is binding, human. How it is done:
TASK-1 or TASK-3 C-terminal fluorescent peptides (10 nM), comprising the last 15 amino acids of the respective C-termini, were titrated with concentrations of the 14-3-3 proteins ranging from 1 nM to 120 µM (Fig. 2), and the equilibrium dissociation constants of 14-3-3 proteins were calculated for TASK-1 phosphorylated at S393 (TASK-1 pS393; the conserved serine residue of the mode III 14-3-3-binding motif) and for TASK-3 phosphorylated at S373 (TASK-3 pS373) (Table 1). They ranged from 7.5±0.14 µM (mean±s.e.m.; 14-3-3β) to 49.4±2 µM (14-3-3τ) for TASK-1, whereas dissociation constants for TASK-3 ranged from 110±10 nM (14-3-3η) to 3.6±0.44 µM (14-3-3σ). The latter value matches the result determined previously by [Anders et al. (2013]) for the TASK-3 C-terminal hexapeptide using isothermal titration calorimetry. The dissociation constants of the seven mammalian 14-3-3 isoforms for the same TASK C-terminal peptide differed up to sevenfold for TASK-1-derived peptides and up to 30-fold for TASK-3-derived peptides. […] No binding of any 14-3-3 isoform to any TASK C-terminal peptide was observed when the peptides were not phosphorylated.
Fig. 2. […] Fluorescence polarization titration of fluorescein-labeled TASK-1 pS393 (black), TASK-3 pS373 (red) and TASK-3 pS373 ΔV374 (blue) peptide (10 nM) with increasing concentrations of the indicated 14-3-3 isoform. Fluorescein was excited at 485 nm, and fluorescence polarization was monitored at 535 nm. A monophasic fit was used to fit the data (Goodness-of-fit: R^2 from 0.76 to 0.98). No binding was detectable for the unphosphorylated TASK C-terminal peptides. The assay was repeated at least six times for each data point with two batches of independently purified 14-3-3 proteins. Error bars depict s.e.m. (A) 14-3-3β, (B) 14-3-3γ, (C) 14-3-3ε, (D) 14-3-3ζ, (E) 14-3-3η and (F) 14-3-3τ.
[Mant et al. (2011)] report that both serine residues present in the TASK-1 C-terminus can be phosphorylated in vitro by the recombinant catalytic subunit of PKA. […] Next, using fluorescence polarization titration, we determined how phosphorylation of S392 affects the affinity of all seven mammalian 14-3-3 proteins for the TASK-1 C-terminus – either when phosphorylated alone or in combination with phosphorylation of S393 (Table S1). […] Because all Kd values determined for TASK-1 pS392 and the doubly phosphorylated protein (at S392 and S393) were substantially higher than those measured for TASK-1 pS393 (Table S1), we conclude that phosphorylation of S392 cannot substitute for phosphorylated S393 in creating a high-affinity 14-3-3 binding site. On the contrary, our results are consistent with an inhibitory role for phosphorylation of S392 with respect to 14-3-3-mediated binding.
Interactions between 14-3-3 proteins and TASK-1 and TASK-3 C-terminal peptides and variants were investigated using a fluorescence polarization assay ([Moll et al., 2006]; [Muda et al., 2014]). Fluorescein-labeled peptides were purchased from Peps4Life Sciences (Heidelberg, Germany). All measurements were performed in buffer containing 20 mM MOPS, 150 mM NaCl, 0.005% (v/v) CHAPS pH 7.0, using a Fusion™ α-FP microtiter plate reader at room temperature in a 384-well microtiter plater (Optiplate 384, black; Packard, Meriden, CT). 14-3-3 proteins were serially diluted from 100 µM to 1 nM and incubated with 10 nM of fluorescently labeled peptide. The fluorescence polarization signal was detected for 2 s at an excitation wavelength of 485 nm with an emission fluorescence polarization filter wavelength of 535 nm and a photomultiplier voltage of 1100. Data were analyzed with GraphPad Prism 6.0 (GraphPad Software, San Diego, CA) by plotting the obtained fluorescence polarization signal in millipolarization units (mPol) against the logarithm of the 14-3-3 protein concentration. The data were then fitted using a monophasic fit.
A general note: Polarisation of emitted light reports the rotation of a fluorescent probe.

Assay [2] addresses GST-tagged TASK-3 C-terminal 15 residues fusion protein, phosphorylated with PKA catalytic subunit (human) (UniProt Q9NPC2). The assay can be described thus: SPR; GST fusion protein captured by an anti-GST antibody on an HC1000m chip, phosphorylated on the chip with PKA catalytic subunit; 14-3-3 proteins as analyte; 20°C; 150 mM NaCl, 20 mM HEPES, 0.005% (v/v) Tween 20, pH 7.5; equilibrium binding isotherms. Background: Surface plasmon resonance follows binding to a sensor surface in real time, without labels.

The target of assay [3] is TASK-3 pS373 C-terminal fluorescent peptide (last 15 amino acids) (human) (UniProt Q9NPC2). The experiment in a line: fluorescence polarisation; 10 nM fluorescein-labelled peptide titrated with 14-3-3 protein (1 nM to 120 µM in the results, 100 µM to 1 nM in the methods); 20 mM MOPS, 150 mM NaCl, 0.005% (v/v) CHAPS pH 7.0; room temperature; monophasic fit.
The target in assay [4] is TASK-1 pS392 C-terminal fluorescent peptide (human) (UniProt O14649). The description is as above.
The target in assay [5] is T1, GST-tagged TASK-3 C-terminal 15 residues fusion protein, phosphorylated with PKA catalytic subunit (human, UniProt Q9NPC2 360-374).
T1 chain: {GST}-SFTDHQRLMKRRK[pS]V
The experiment in a line: SPR.

Assay [6] has as its target TASK-1 pS393 C-terminal fluorescent peptide (last 15 amino acids) (human) (UniProt O14649). The experiment in a line: fluorescence polarisation; 10 nM fluorescein-labelled peptide titrated with 14-3-3 protein (1 nM to 120 µM in the results, 100 µM to 1 nM in the methods); 20 mM MOPS, 150 mM NaCl, 0.005% (v/v) CHAPS pH 7.0; room temperature; monophasic fit.
[7] abbreviates: fluorescence polarization, best of the seven isoforms, read-out: Kd of the highest-affinity 14-3-3 interaction.

One may read the Kd as the constant that tells how readily two partners part at equilibrium. In the case of `CSCC[C@H](NC(=O)[C@H](CC(C)C)NC(=O)CNC(=O)[C@H](CCCNC(=N)N)NC(=O)[C@H](Cc1ccccc1)NC(=O)[C@@H](NC(=O)[C@H](CO)NC(=O)[C@H](CC(C)C)NC(=O)[C@H](CO)NC(=O)[C@@H](N)CS)[C@@H](C)O)C(=O)N[C@@H](CCCCN)C(=O)N[C@@H](CCCNC(=N)N)C(=O)N[C@@H](CCCNC(=N)N)C(=O)N[C@@H](CO)C(=O)N[C@@H](COP(=O)(O)O)C(=O)N[C@H](C(=O)O)C(C)C` [TASK-1 pS393] (H-CSLSTFRGLMKRRS[pS]V-OH; N-terminus assumed), the “fold lower affinity for 14-3-3 proteins than the TASK-3 C-terminus” value in assay [1] (fluorescence polarization, TASK-1 pS393 versus TASK-3 pS373) is on record as 10- to 100 fold. For the same molecule, the Kd in assay [1] (setting [7]) is about 10 µM.
Regarding `CSCC[C@H](NC(=O)[C@H](CC(C)C)NC(=O)[C@H](CCCNC(=N)N)NC(=O)[C@H](CCC(N)=O)NC(=O)[C@H](Cc1c[nH]cn1)NC(=O)[C@H](CC(=O)O)NC(=O)[C@@H](NC(=O)[C@H](Cc1ccccc1)NC(=O)[C@H](CO)NC(=O)[C@@H](N)CS)[C@@H](C)O)C(=O)N[C@@H](CCCCN)C(=O)N[C@@H](CCCNC(=N)N)C(=O)N[C@@H](CCCNC(=N)N)C(=O)N[C@@H](CCCCN)C(=O)N[C@@H](COP(=O)(O)O)C(=O)N[C@H](C(=O)O)C(C)C` [TASK-3 pS373] (H-CSFTDHQRLMKRRK[pS]V-OH; N-terminus assumed), the Kd in assay [1] (setting [7]) is about 0.1 µM.
For the molecule `CSCC[C@H](NC(=O)[C@H](CC(C)C)NC(=O)CNC(=O)[C@H](CCCNC(=N)N)NC(=O)[C@H](Cc1ccccc1)NC(=O)[C@@H](NC(=O)[C@H](CO)NC(=O)[C@H](CC(C)C)NC(=O)[C@H](CO)NC(=O)[C@@H](N)CS)[C@@H](C)O)C(=O)N[C@@H](CCCCN)C(=O)N[C@@H](CCCNC(=N)N)C(=O)N[C@@H](CCCNC(=N)N)C(=O)N[C@@H](COP(=O)(O)O)C(=O)N[C@@H](CO)C(=O)N[C@H](C(=O)O)C(C)C` [TASK-1 pS392] (H-CSLSTFRGLMKRR[pS]SV-OH), the Kd in assay [1] (fluorescence polarization titration, all seven 14-3-3 proteins, read-out: Kd values across the 14-3-3 proteins (approximate, Table S1)) is about 100 µM.
With `CSCC[C@H](NC(=O)[C@H](CC(C)C)NC(=O)CNC(=O)[C@H](CCCNC(=N)N)NC(=O)[C@H](Cc1ccccc1)NC(=O)[C@@H](NC(=O)[C@H](CO)NC(=O)[C@H](CC(C)C)NC(=O)[C@H](CO)NC(=O)[C@@H](N)CS)[C@@H](C)O)C(=O)N[C@@H](CCCCN)C(=O)N[C@@H](CCCNC(=N)N)C(=O)N[C@@H](CCCNC(=N)N)C(=O)N[C@@H](COP(=O)(O)O)C(=O)N[C@@H](COP(=O)(O)O)C(=O)N[C@H](C(=O)O)C(C)C` [doubly phosphorylated peptide] (H-CSLSTFRGLMKRR[pS][pS]V-OH; N-terminus assumed), the “Kd values across the 14-3-3 proteins (approximate, Table S1)” value in assay [1] (fluorescence polarization titration, all seven 14-3-3 proteins) is “high micromolar range”.
Take “14-3-3σ (from UniProt P31947 1-248) (natural protein)”: the Kd in assay [2] stood at 0.742 µM; in assay [3], 3.6 µM; in assay [4], 100 µM.

B1: 14-3-3η (natural protein)
chain: MGDREQLLQRARLAEQAERYDDMASAMKAVTELNEPLSNEDRNLLSVAYKNVVGARRSSWRVISSIEQKTMADGNEKKLEKVKAYREKIEKELETVCNDVLSLLDKFLIKNCNDFQYESKVFYLKMKGDYYRYLAEVASGEKKNSVVEASEAAYKEAFEISKEQMQPTHPIRLGLALNFSVFYYEIQNAPEQACLLAKQAFDDAIAELDTLNEDSYKDSTLIMQLLRDNLTLWTSDQQDEEAGEGN
Turning to B1, the dissociation constant (Kd) in assay [3] is 0.11 µM; in assay [4] it was 100 µM; in assay [5], 0.115 µM.

B2: 14-3-3ζ (natural protein)
chain: MDKNELVQKAKLAEQAERYDDMAACMKSVTEQGAELSNEERNLLSVAYKNVVGARRSSWRVVSSIEQKTEGAEKKQQMAREYREKIETELRDICNDVLSLLEKFLIPNASQAESKVFYLKMKGDYYRYLAEVAAGDDKKGIVDQSQQAYQEAFEISKKEMQPTHPIRLGLALNFSVFYYEILNSPEKACSLAKTAFDEAIAELDTLSEESYKDSTLIMQLLRDNLTLWTSDTQGDEAEAGEGGEN
Take B2: the Kd in assay [4] was determined as 100 µM; in assay [5], 0.221 µM.

B3: 14-3-3τ (natural protein)
chain: MEKTELIQKAKLAEQAERYDDMATCMKAVTEQGAELSNEERNLLSVAYKNVVGGRRSAWRVISSIEQKTDTSDKKLQLIKDYREKVESELRSICTTVLELLDKYLIANATNPESKVFYLKMKGDYFRYLAEVACGDDRKQTIDNSQGAYQEAFDISKKEMQPTHPIRLGLALNFSVFYYEILNNPELACTLAKTAFDEAIAELDTLNEDSYKDSTLIMQLLRDNLTLWTSDSAGEECDAAEGAEN
With B3, the Kd in assay [4] is 100 µM; in assay [6], 49.4 µM; in assay [5] it was 0.246 µM.

The values above are taken from paper PMC4760375, “A dual phosphorylation switch controls 14-3-3-dependent cell surface expression of TASK-1” (Journal of Cell Science, 2016).
